Results taken from patent publication WO2021244601A1 (dated 2021).

Key:
[1] = biological target: Spike S1+S2 protein of Wuhan-Hu-1 (Yiqiao Shenzhou / SB, 40589-V08B1) (SARS-CoV-2 Wuhan-Hu-1 strain, UniProt P0DTC2 16-1213)
[2] = biological target: S protein of SARS-CoV-2 true virus, strain BetaCoV/Beijing/IMEBJ01/2020 (SARS-CoV-2 BetaCoV/Beijing/IMEBJ01/2020); experiment: cell-based or functional assay
[3] = biological target: S protein of Wuhan-Hu-1 on pseudovirus (SARS-CoV-2 Wuhan-Hu-1 strain, UniProt P0DTC2 14-1273); experiment: cell-based or functional assay
[4] = biological target: T1, human CD64 (ACROBiosystems, catalog number FCA-H52H2) (human, UniProt P12314 16-288)
[5] = biological target: T1, human CD64 (ACROBiosystems, catalog …); experiment: BLI, OctetRED 96, antibody on FAB2G sensor

T1 sequence (P12314 16-288 limits assumed): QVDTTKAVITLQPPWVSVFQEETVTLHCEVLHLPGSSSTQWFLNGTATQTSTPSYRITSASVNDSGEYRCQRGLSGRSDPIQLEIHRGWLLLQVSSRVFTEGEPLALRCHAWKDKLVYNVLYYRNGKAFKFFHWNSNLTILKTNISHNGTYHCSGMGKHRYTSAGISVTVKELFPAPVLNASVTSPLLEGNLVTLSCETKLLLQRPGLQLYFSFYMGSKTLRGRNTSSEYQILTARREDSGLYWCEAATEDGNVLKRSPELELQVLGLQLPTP

Binder | IC50 [1] [nM] | IC50, neutralisation of true virus on Vero cells (plaques) [2] [µg/mL] | IC50(nM), pseudovirus neutralisation on 293T-ACE2 cells (Luciferase RLU) [3] [nM] | IC50, pseudovirus neutralisation (method as 3.15) [3] [nM] | Kd [4] [nM] | binding result [5]
CA304 (antibody, V domains shown) VH: EVQLQQWGAGLLKPSETLSLTCAVYGGSFSGYYWSWIRQPPGKGLEWIGEVNHSGSTNYNPSLKSRVTISVDTSKNQLSLKLNSVTAADTAVYYCARGNTMVRGVIIPFEYWDKGTLVTVSS VL: DIVMTQTPLSLPVTLGQPASISCRSSQSLVHSDGNTYLNWFQQRPGQSPRRLIYKVSNRDSGVPDRFSGSGAGTDFTLKISRVEAEDVGVYYCTQATQFPFTFGPGTKVDIKR | 0.176 | 0.08 | 0.2 | 0.821 | – | –
CA555 (antibody, V domains shown) VH: EVQLQQWGAGLLKPSETLSLTCAVYGGSFSGYYWSWIRQPPGKGLEWIGEVNHSGSTNYNPSLKSRVTISVDTSKNQLSLKLNSVTAADTAVYYCARGNTMVRGVIIPFEYWDKGTLVTVSS VL: not shown | 0.187 | – | 0.98 | 0.328 | – | –
IgG4 wild-type control antibody (antibody) heavy: not shown light: DIVMTQSPSSLSASVGDRVTITCRASQGIRNDLGWYQQKPGKAPKLLIYAASSLQSGVPSRFSGSGSGTDFTLTISSLQPEDFATYYCLQDYNYPRTFGQGTKVEIKRTVAAPSVFIFPPSDEQLKSGTASVVCLLNNFYPREAKVQWKVDNALQSGNSQESVTEQDSKDSTYSLSSTLTLSKADYEKHKVYACEVTHQGLSSPVTKSFNRGEC | – | – | – | – | 3.41 | –
CA530 (antibody, copies: 2 + 2) heavy: not shown light: DIVMTQTPLSLPVTLGQPASISCRSSQSLVHSDGNTYLNWFQQRPGQSPRRLIYKVSNRDSGVPDRFSGSGSGTDFTLKISRVEAEDVGVYYCMQGTHWPRTFGQGTKVEIKRTVAAPSVFIFPPSDEQLKSGTASVVCLLNNFYPREAKVQWKVDNALQSGNSQESVTEQDSKDSTYSLSSTLTLSKADYEKHKVYACEVTHQGLSSPVTKSFNRGEC | – | – | 0.11 | – | – | no binding
